The target in assay [1] is T1, mouse GFRAL-Fc fusion (R&D catalogue no. 9844-GR-050050) (mouse, UniProt Q6SJE0 20-349).
T1 construct: Bought fusion protein; not shown: Fc part of the bought fusion
T1 sequence: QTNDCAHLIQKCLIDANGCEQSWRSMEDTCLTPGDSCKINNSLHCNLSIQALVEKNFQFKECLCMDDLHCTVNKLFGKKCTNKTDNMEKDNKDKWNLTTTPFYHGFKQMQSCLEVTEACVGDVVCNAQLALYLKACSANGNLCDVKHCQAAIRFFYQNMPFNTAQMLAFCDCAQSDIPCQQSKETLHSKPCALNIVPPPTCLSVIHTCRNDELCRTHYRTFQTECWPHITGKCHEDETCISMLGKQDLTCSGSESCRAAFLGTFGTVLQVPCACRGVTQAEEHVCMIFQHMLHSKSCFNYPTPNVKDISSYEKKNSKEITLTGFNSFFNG
Kind of assay: SPR, antibody captured via anti-human Fc, mouse GFRAL-Fc fusion as analyte, method of Example 2. The protocol: (§1) Binding of antibodies to human GFRAL was measured by SPR using His-tagged human GFRAL as analyte, and test antibody coupled to the surface of a CM4 biosensor chip via immobilised anti-human Fc antibody. Running buffer was HBS-P+ buffer pH 7.4 (GE BR100671) with 1 mM CaCl₂. Antibodies were captured for 60 seconds at 1 μg/ml (˜80-140 RU captured, depending on the binder). Analyte (recombinant soluble GFRAL protein, R&D catalogue no. 9647-GR-050) was injected at 100, 25, 6.25, 1.56, 0.39, 0.098, 0.024 and 0 nM for 120 seconds association time at […] and dissociation was monitored for 1200 seconds. The chip surface was regenerated using 10 mM glycine pH 1.5. All experiments were performed at 25° C. Sensorgrams for each antibody were double subtracted (reference cell and 0 concentration). Data were fitted to a 1:1 binding interaction model. Sensorgrams were fitted using multiple cycle kinetics mode. […] FIG. 5.
Affinity for mouse GFRAL was determined by SPR by the same method as in Example 2 using a mouse GFRAL-Fc fusion (R&D catalogue no. 9844-GR-050050) as analyte. FIG. 6.

The target in assay [2] is T2, His-tagged human GFRAL (recombinant soluble GFRAL protein, R&D catalogue no. 9647-GR-050) (human, UniProt Q6UXV0 19-351).
T2 construct: Bought soluble protein; also called Human GFRAL with a 6His tag; GFRAL antigen; not shown: 6His tag
T2 sequence: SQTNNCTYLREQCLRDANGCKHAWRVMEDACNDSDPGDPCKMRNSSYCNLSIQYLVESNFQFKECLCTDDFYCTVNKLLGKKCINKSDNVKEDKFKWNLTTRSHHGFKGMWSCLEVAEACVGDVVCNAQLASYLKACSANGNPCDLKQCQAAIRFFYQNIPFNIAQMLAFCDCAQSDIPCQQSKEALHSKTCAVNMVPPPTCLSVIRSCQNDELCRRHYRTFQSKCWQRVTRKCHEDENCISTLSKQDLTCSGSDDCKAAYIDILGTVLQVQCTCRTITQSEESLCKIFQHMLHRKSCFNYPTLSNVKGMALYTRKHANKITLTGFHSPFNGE
Briefly: SPR sandwich assay: row antibody captured via anti-Fc, GFRAL antigen added, then GDF15 injected as analyte (competitor: GDF15). As to the method:
(§2) In this assay, pairs of antibodies are tested for their ability to simultaneously bind antigen. A first antibody is coupled via its Fc region to a solid support and the GFRAL antigen is added in solution, allowing formation of an antibody-antigen complex. A second antibody is then added in solution.
The same principle may be used to assess whether an antibody and a native ligand compete for binding to antigen. Thus, a test antibody is coupled to a solid support and the GFRAL antigen is added in solution, allowing formation of an antibody-GFRAL complex. GDF15 is then added in solution.

Assay [3] addresses T1, mouse GFRAL-Fc fusion (R&D catalogue …). Briefly: SPR, KD for mouse GFRAL compared with KD for human GFRAL.
Assay [4] concerns the target T3, human GFRAL expressed on the surface of HEK293 cells (co-expressed with human RET) (human, UniProt Q6UXV0 19-394).
T3 sequence: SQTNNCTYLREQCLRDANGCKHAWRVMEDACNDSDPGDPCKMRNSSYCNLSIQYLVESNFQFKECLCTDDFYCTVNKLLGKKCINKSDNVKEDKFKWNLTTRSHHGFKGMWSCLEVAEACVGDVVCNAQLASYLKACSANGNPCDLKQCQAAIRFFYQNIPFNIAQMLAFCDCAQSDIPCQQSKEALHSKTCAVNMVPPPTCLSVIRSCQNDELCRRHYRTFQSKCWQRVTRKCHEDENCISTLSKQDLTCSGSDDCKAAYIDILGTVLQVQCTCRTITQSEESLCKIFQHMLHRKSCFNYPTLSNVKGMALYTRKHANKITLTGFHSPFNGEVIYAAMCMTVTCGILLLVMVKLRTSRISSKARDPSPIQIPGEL
Kind of assay: cell-based or functional assay.

In assay [5] the target is T2, His-tagged human GFRAL (recombinant …). Kind of assay: SPR, antibody captured via anti-human Fc on CM4 chip, His-tagged human GFRAL as analyte, 25 C, 1:1 model. As to the method:
as §1

The target is the same in assay [6]. Briefly: SPR sandwich assay: row antibody captured via anti-Fc, GFRAL antigen added, then mAbQ injected as analyte (competitor: mAb Q). The protocol:
as §2

Assay [7] shares this target. Briefly: SPR, KD for human GFRAL of QUEL-0301 compared with reference antibody mAb Q.
The target of assay [8] is T3, human GFRAL expressed on the surface of …. Kind of assay: cell-based or functional assay. The source holds these as a separate data set.

This is an account of results in patent US20240182585A1 (CAMBRIDGE ENTERPRISE, published 2024).

B1: QUEL-0201 (antibody, V domains shown)
VH: QVQLVQSGAEVKEPGASVRVSCKASGYTFISHAIHWVRQAPGQRLEWMGWINAVNGNTKYSQKFQDRVTFTRDTSASTAYMDLNSLRAEDTALYYCAREGYTYGVHYSYGMDVWGQGTTVTVSS
VL: QSVLTQPPSVSGAPGQRVTISCTGSSSNIGAGYDVHWYQQLPGTVLKLLIYGNNNRPSGVPDRFSGSNSGTSASLAITGLQPEDEADYYCQSYDSSLSGYWVFGGGTKLTVL
notes: the antibody was captured via anti-human Fc antibody
For the molecule B1, in assay [1], binding was characterised by a dissociation constant (Kd) of 0.0648 nM, the koff is 9.9e-06 s⁻¹ and the kon was 153000 M⁻¹ s⁻¹. The “resonance units after GDF15 injection” value in assay [2] turned out to be 83.9 resonance units. Besides, the “fold difference in affinity, human against mouse GFRAL” value in assay [3] was no more than 1.5 fold. Also, the “IC50 (ERK phosphorylation HTRF assay, 4 nM GDF15)” value (“IC50” below) in assay [4] came to 8.6 nM. Besides, in assay [5], the Kd came out at 0.0839 nM, the koff was 6.19e-05 s⁻¹ and the kon stood at 738000 M⁻¹ s⁻¹. The “resonance units after mAbQ injection” value in assay [6] was found to be 268 resonance units.

B2: QUEL-0301 (antibody, V domains shown)
VH: EVQLVESGGGLVQPGGSLRLSCAASGFTFSNSWMNWVRQTPGKGLEWVANIDQDGDQKYYVDSVKGRFTISRDNAKNSLYLQMNSLRAEDTAVYYCAREITGTTFDYWGQGTLVTVSS
VL: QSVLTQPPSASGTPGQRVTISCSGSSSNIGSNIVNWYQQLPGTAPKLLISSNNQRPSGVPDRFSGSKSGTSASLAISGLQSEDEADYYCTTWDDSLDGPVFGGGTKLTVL
notes: as for B1
In assay [1], B2 gave an equilibrium dissociation constant (Kd) of 4.95 nM, a koff of 0.000524 s⁻¹ and a kon of 106000 M⁻¹ s⁻¹. Besides, the “resonance units after GDF15 injection” value in assay [2] amounted to 77.3 resonance units. Moreover, in assay [7], the “fold difference in affinity against mAb Q” value was roughly 4 fold. For the same molecule, the “IC50” value in assay [4] was determined as 9.4 nM. For the same molecule, in assay [5], the Kd amounted to 0.000988 nM, the koff came out at 9.72e-06 s⁻¹ and the kon is 9.83e+06 M⁻¹ s⁻¹. Also, the “resonance units after mAbQ injection” value in assay [6] stood at 298 resonance units.

B3: QUEL-0101 (antibody, V domains shown)
VH: QVQLVESGGGVVQPGRSLRLSCAASGFAFNNYGMHWVRQGPGRGLEWVAIISYDGTTQYSVDSVKGRFTISRDNSKNTLYLQMNSLRTEDTALYYCAKEAGDFYGSGNYGYHKYGLDVWGQGTTVTVSS
VL: DIQMTQSPSSLSASVGDRVTITCRASQDISNYLAWYQQKPGKIPKLLIYAASTLQSGVPSRFSGSGSGTDFTLTISSLQPEDVASYYCQKYSSAPLTFGGGTKVEIK
notes: as for B1
Turning to B3, in assay [1], binding was put at a Kd of 1.19 nM, the koff was 0.000112 s⁻¹ and the kon was determined as 93700 M⁻¹ s⁻¹. Also, the “resonance units after GDF15 injection” value in assay [2] is 87.3 resonance units. In assay [3], the “fold difference in affinity, human against mouse GFRAL” value was no more than 10 fold. In addition, in assay [4], the “IC50” value stood at 2.8 nM. In assay [5], the Kd came out at 0.14 nM, the koff amounted to 7.87e-05 s⁻¹ and the kon amounted to 561000 M⁻¹ s⁻¹. In addition, the “resonance units after mAbQ injection” value in assay [6] stood at 306 resonance units.

B4: recombinant human GDF15 protein with 6-His tag (R&D Systems, 957-GD) (ligand, UniProt Q99988 197-308, looked up)
chain: ARNGDHCPLGPGRCCRLHTVRASLEDLGWADWVLSPREVQVTMCIGACPSQFRAANMHAQIKTSLHRLKPDTVPAPCCVPASYNPMVLIQKTDTGVSLQTYDDLLAKDCHCI
On to B4, for which the “EC50 (read off the curve)” value in assay [8] was roughly 1 nM.
